Data reported in US20240360201A1 (BIOCYTOGEN PHARMACEUTICALS BEIJING, published 2024).

T1: FcγRIIA-H167-Acro (human, UniProt P12318 36-218, limits assumed)
T1 construct: bought; His at 167; also called Human Fc gamma RIIA/CD32a (H167) Protein, His Tag
T1 sequence (looked up): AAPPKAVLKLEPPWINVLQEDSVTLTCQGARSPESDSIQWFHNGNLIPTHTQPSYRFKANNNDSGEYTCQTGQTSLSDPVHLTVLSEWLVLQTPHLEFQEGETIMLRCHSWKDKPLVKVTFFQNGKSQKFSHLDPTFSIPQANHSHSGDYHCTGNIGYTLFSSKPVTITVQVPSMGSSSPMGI

T2: FcγRIIA-R167-Sino (human, UniProt P12318 34-218, limits assumed)
T2 construct: bought; Arg at 167; also called FCRIIA-R167-Sino; CD32A Protein, Human, Recombinant (167 Arg, His Tag)
T2 sequence (looked up): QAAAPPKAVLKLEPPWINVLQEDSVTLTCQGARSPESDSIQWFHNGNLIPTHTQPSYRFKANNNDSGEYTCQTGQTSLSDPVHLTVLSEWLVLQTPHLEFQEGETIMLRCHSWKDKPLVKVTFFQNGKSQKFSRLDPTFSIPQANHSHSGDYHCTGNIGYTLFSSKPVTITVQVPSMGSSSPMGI


Tests used:
[1] = biological target: T3, FcRn (human, UniProt P55899 24-297; P61769 21-119); assay: SPR Biacore T200; binder captured on protein A chip, Fc receptor as analyte
T3 construct: bought; also called FcγRn; FcRn-Acro
Experimental: (§1) Binding affinities of the fusion proteins PDL1-TGFbR2-3A (IgG1) (or PDL1-TGFbR2-3A-IgG1) and PDL1-TGFbR2-3A-IgG4 to human Fc receptors were measured by surface plasmon resonance (SPR) using Biacore™ T200 biosensor equipped with pre-immobilized protein A sensor chips. The Fc receptors included FcγRI-Sino, FcγRIIA-R167-Sino, FcγRIIIA-F176-Sino, FcγRIIIB-Sino, and FcγRn. A humanized CTLA4 antibody CT4-4G12-IgG1 (CT4-4G12, or 4G12; VH SEQ ID NO: 44, VL SEQ ID NO: 45) was used as a control to test binding affinity to FcγRn.

[2] = biological target: human CTLA4 (hCTLA4-His) (human, UniProt P16410 36-161, limits assumed); assay: SPR Biacore T200; binder captured on protein A chip, target as analyte
Sequence of human CTLA4 (hCTLA4-His) (P16410 36-161 limits assumed): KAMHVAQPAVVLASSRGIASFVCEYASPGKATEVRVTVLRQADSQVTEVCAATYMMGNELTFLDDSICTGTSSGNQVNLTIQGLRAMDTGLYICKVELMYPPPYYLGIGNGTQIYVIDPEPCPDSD
Experimental: Binding affinities of the fusion proteins against human CTLA4 (hCTLA4-His) or human PD-L1 (hPDL1) were measured by surface plasmon resonance (SPR) using Biacore™ T200 biosensor equipped with pre-immobilized protein A sensor chips. A CTLA4 antibody CT4-4G12-IgG1 (CT4) was used as a control. ATOR1015-CD86 (CD86) and KN035-IgG1 (with D265A mutation in heavy chain constant domain) were also used as controls.

[3] = biological target: T4, FcγRIIIB-NA1-Acro (human, UniProt O75015 17-200, limits assumed); assay: SPR (Biacore T200), antibody captured on protein A sensor chip, Fc receptor as analyte; analyte range 800nm-6.25nm
T4 construct: bought; also called Human Fc gamma RIIIB/CD16b (NA1) Protein, His Tag
T4 sequence (O75015 other isoform, or with tags, fused parts or gaps limits assumed): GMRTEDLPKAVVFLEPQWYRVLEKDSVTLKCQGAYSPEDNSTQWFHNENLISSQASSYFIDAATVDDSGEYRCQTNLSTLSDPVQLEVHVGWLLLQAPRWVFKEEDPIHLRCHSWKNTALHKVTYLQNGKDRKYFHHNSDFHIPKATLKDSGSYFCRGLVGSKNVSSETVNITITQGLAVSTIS
From the text: (§2) The Fc receptors included FcγRIIB (FcγRIIB-Acro), FcγRIIA (FcγRIIA-H167-Acro), FcγRIIIA (FcγRIIIA-V176-Acro), FcγRIIIB (FcγRIIIB-NA1-Acro), FcγRI (FcγRI-Sino), and FcRn (FcRn-Acro).

[4] = biological target: T1, FcγRIIA-H167-Acro; assay: as above
From the text: as §2

[5] = biological target: T5, FcγRI-Sino (human, UniProt P12314 16-288, limits assumed); assay: SPR (Biacore T200), antibody captured on protein A sensor chip, Fc receptor as analyte; analyte range 400nm-6.25nm
T5 construct: bought; also called CD64 Protein, Human, Recombinant (His Tag)
T5 sequence (P12314 16-288 limits assumed): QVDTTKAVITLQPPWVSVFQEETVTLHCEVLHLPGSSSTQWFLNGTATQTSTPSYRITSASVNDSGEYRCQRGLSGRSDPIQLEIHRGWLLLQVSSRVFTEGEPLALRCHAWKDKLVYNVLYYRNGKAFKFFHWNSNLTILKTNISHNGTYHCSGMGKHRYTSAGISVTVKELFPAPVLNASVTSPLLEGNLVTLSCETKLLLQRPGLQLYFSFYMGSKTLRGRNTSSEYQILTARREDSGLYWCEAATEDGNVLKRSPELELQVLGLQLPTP
From the text: as §2

[6] = biological target: T3, FcRn; assay: SPR (Biacore T200), antibody captured on protein A sensor chip, FcRn-Acro as analyte; analyte range 1000nm-15.625nm
From the text: as §2

[7] = biological target: T6, FcγRIIIA-V176-Acro (human, UniProt P08637 17-208); assay: SPR (Biacore T200), antibody captured on protein A sensor chip, Fc receptor as analyte; analyte range 400nm-3.125nm
T6 construct: bought; Val at 176; also called Human Fc gamma RIIIA/CD16a (V176) Protein, His Tag
T6 sequence (P08637 17-208 F176V limits assumed): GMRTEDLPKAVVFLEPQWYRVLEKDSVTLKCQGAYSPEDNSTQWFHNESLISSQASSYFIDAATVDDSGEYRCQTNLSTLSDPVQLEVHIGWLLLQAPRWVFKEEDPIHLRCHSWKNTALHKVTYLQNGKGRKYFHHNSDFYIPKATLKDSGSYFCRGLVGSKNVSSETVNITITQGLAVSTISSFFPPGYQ
From the text: as §2

[8] = biological target: T5, FcγRI-Sino; assay: SPR Biacore T200; binder captured on protein A chip, Fc receptor as analyte
Experimental: as §1

[9] = biological target: T2, FcγRIIA-R167-Sino; assay: as above
Experimental: as §1

[10] = biological target: T7, FcγRIIIB-Sino (human, UniProt O75015 17-200, limits assumed); assay: as above
T7 construct: bought; also called FCRIIIB-Sino; CD16b Protein, Human, Recombinant (NA1 allotypes, His Tag)
T7 sequence (O75015 other isoform, or with tags, fused parts or gaps limits assumed): as the sequence (O75015 other isoform, or with tags, fused parts or gaps limits assumed) above
Experimental: as §1

Row | Kd [1] [nM] | Kd [2] [nM] | koff [2] [s⁻¹] | kon [2] [M⁻¹ s⁻¹] | Kd [3] [nM] | Kd [4] [nM] | Kd [5] [nM] | Kd [6] [nM] | Kd [7] [nM] | Kd [8] [nM] | Kd [9] [nM] | Kd [10] [nM] | Binder
1 |  |  |  |  | 479 | 426 | 194 | 527 | 75.5 |  |  |  | PDL1-mIL7-3A (antibody, human IgG1, lambda, IgG1 immunocytokine) heavy: EVQLLESGGGLVQPGGSLRLSCAASGFTFSSYIMMWVRQAPGKGLEWVSSIYPSGGITFYADTVKGRFTISRDNSKNTLYLQMNSLRAEDTAVYYCARIKLGTVTTVDYWGQGTLVTVSSASTKGPSVFPLAPSSKSTSGGTAALGCLVKDYFPEPVTVSWNSGALTSGVHTFPAVLQSSGLYSLSSVVTVPSSSLGTQTYICNVNHKPSNTKVDKKVEPKSCDKTHTCPPCPAPELLGGPSVFLFPPKPKDTLMISRTPEVTCVVVDVSHEDPEVKFNWYVDGVEVHNAKTKPREEQYNSTYRVVSVLTVLHQDWLNGKEYKCKVSNKALPAPIEKTISKAKGQPREPQVYTLPPSRDEGGGGSGGGGSECHIKDKEGKAYESVLMISIDELDKMTGTDSNCPNNEPNFFRKHVCDDTKEAAFLNRAARKLKQFLKMNISEEFNVHLLTVSQGTQTLVNCTSKEEKNVKEQKKNDACFLKRLLREIKTCWNKILKGSIGGGGSGGGGSVSLTCLVKGFYPSDIAVEWESNGQPENNYKTTPPVLDSDGSFFLYSKLTVDKSRWQQGNVFSCSVMHEALHNHYTQKSLSLSPGA light: QSALTQPASVSGSPGQSITISCTGTSSDVGGYNYVSWYQQHPGKAPKLMIYDVSNRPSGVSNRFSGSKSGNTASLTISGLQAEDEADYYCSSYTSSSTRVFGTGTKVTVLGQPKANPTVTLFPPSSEELQANKATLVCLISDFYPGAVTVAWKADGSPVKAGVETTKPSKQSNNKYAASSYLSLTPEQWKSHRSYSCQVTHEGSTVEKTVAPTECS
2 |  |  |  |  | 501 | 115 | 27.1 | 160 | 17.3 |  |  |  | PDL1-mIL7-3A-mIFNa4 (antibody, human IgG1, lambda, 3A-HC format: mIL7 at the 3A site, mIFNa4 at the heavy chain C-terminus through a linker) heavy: EVQLLESGGGLVQPGGSLRLSCAASGFTFSSYIMMWVRQAPGKGLEWVSSIYPSGGITFYADTVKGRFTISRDNSKNTLYLQMNSLRAEDTAVYYCARIKLGTVTTVDYWGQGTLVTVSSASTKGPSVFPLAPSSKSTSGGTAALGCLVKDYFPEPVTVSWNSGALTSGVHTFPAVLQSSGLYSLSSVVTVPSSSLGTQTYICNVNHKPSNTKVDKKVEPKSCDKTHTCPPCPAPELLGGPSVFLFPPKPKDTLMISRTPEVTCVVVDVSHEDPEVKFNWYVDGVEVHNAKTKPREEQYNSTYRVVSVLTVLHQDWLNGKEYKCKVSNKALPAPIEKTISKAKGQPREPQVYTLPPSRDEGGGGSGGGGSECHIKDKEGKAYESVLMISIDELDKMTGTDSNCPNNEPNFFRKHVCDDTKEAAFLNRAARKLKQFLKMNISEEFNVHLLTVSQGTQTLVNCTSKEEKNVKEQKKNDACFLKRLLREIKTCWNKILKGSIGGGGSGGGGSVSLTCLVKGFYPSDIAVEWESNGQPENNYKTTPPVLDSDGSFFLYSKLTVDKSRWQQGNVFSCSVMHEALHNHYTQKSLSLSPGAGGGGSGGGGSGGGGSGGGGSCDLPHTYNLGNKRALTVLEEMRRLPPLSCLKDRKDFGFPLEKVDNQQIQKAQAILVLRDLTQQILNLFTSKDLSATWNATLLDSFCNDLHQQLNDLKACVMQEPPLTQEDSLLAVRTYFHRITVYLRKKKHSLCAWEVIRAEVWRALSSSTNLLARLSEEKE light: QSALTQPASVSGSPGQSITISCTGTSSDVGGYNYVSWYQQHPGKAPKLMIYDVSNRPSGVSNRFSGSKSGNTASLTISGLQAEDEADYYCSSYTSSSTRVFGTGTKVTVLGQPKANPTVTLFPPSSEELQANKATLVCLISDFYPGAVTVAWKADGSPVKAGVETTKPSKQSNNKYAASSYLSLTPEQWKSHRSYSCQVTHEGSTVEKTVAPTECS

The remaining lines, values behind:

Row | Binder | Kd [1] [nM] | Kd [2] [nM] | koff [2] [s⁻¹] | kon [2] [M⁻¹ s⁻¹] | Kd [3] [nM] | Kd [4] [nM] | Kd [5] [nM] | Kd [6] [nM] | Kd [7] [nM] | Kd [8] [nM] | Kd [9] [nM] | Kd [10] [nM]
3 | CT4-4G12-IgG1 (antibody, IgG1; also called humanized CTLA4 antibody) heavy: not shown light: DIQMTQSPSFLSASVGDRVTITCRAGENIYSYLAWYQQKPGKAPKLLIYNARTLAEGVPSRFSGSGSGTEFTLTISSLQPEDFATYYCQHHYGSPRTFGGGTKLEIKRTVAAPSVFIFPPSDEQLKSGTASVVCLLNNFYPREAKVQWKVDNALQSGNSQESVTEQDSKDSTYSLSSTLTLSKADYEKHKVYACEVTHQGLSSPVTKSFNRGEC | 126 | 5.91 | 0.00151 | 256000 |  |  |  |  |  |  |  | 
4 | PDL1-avelumab (antibody, human IgG1, lambda, IgG1; also called anti-PD-L1 IgG1 antibody; PD-L1 antibody) heavy: not shown light: QSALTQPASVSGSPGQSITISCTGTSSDVGGYNYVSWYQQHPGKAPKLMIYDVSNRPSGVSNRFSGSKSGNTASLTISGLQAEDEADYYCSSYTSSSTRVFGTGTKVTVLGQPKANPTVTLFPPSSEELQANKATLVCLISDFYPGAVTVAWKADGSPVKAGVETTKPSKQSNNKYAASSYLSLTPEQWKSHRSYSCQVTHEGSTVEKTVAPTECS |  |  |  |  | 33100 | 1050 | 101 | 1250 | 263 | 6.52 | 692 | 1210
5 | PDL1-TGFbR2-3A-IgG4 (antibody, IgG4 subtype of PDL1-TGFbR2-3A) heavy: EVQLLESGGGLVQPGGSLRLSCAASGFTFSSYIMMWVRQAPGKGLEWVSSIYPSGGITFYADTVKGRFTISRDNSKNTLYLQMNSLRAEDTAVYYCARIKLGTVTTVDYWGQGTLVTVSSASTKGPSVFPLAPCSRSTSESTAALGCLVKDYFPEPVTVSWNSGALTSGVHTFPAVLQSSGLYSLSSVVTVPSSSLGTKTYTCNVDHKPSNTKVDKRVESKYGPPCPPCPAPEFLGGPSVFLFPPKPKDTLMISRTPEVTCVVVDVSQEDPEVQFNWYVDGVEVHNAKTKPREEQFNSTYRVVSVLTVLHQDWLNGKEYKCKVSNKGLPSSIEKTISKAKGQPREPQVYTLPPSQEEGGGGSGGGGSIPPHVQKSVNNDMIVTDNNGAVKFPQLCKFCDVRFSTCDNQKSCMSNCSITSICEKPQEVCVAVWRKNDENITLETVCHDPKLPYHDFILEDAASPKCIMKEKKKPGETFFMCSCSSDECNDNIIFSEEYNTSNPDGGGGSGGGGSVSLTCLVKGFYPSDIAVEWESNGQPENNYKTTPPVLDSDGSFFLYSRLTVDKSRWQEGNVFSCSVMHEALHNHYTQKSLSLSLGK light: QSALTQPASVSGSPGQSITISCTGTSSDVGGYNYVSWYQQHPGKAPKLMIYDVSNRPSGVSNRFSGSKSGNTASLTISGLQAEDEADYYCSSYTSSSTRVFGTGTKVTVLGQPKANPTVTLFPPSSEELQANKATLVCLISDFYPGAVTVAWKADGSPVKAGVETTKPSKQSNNKYAASSYLSLTPEQWKSHRSYSCQVTHEGSTVEKTVAPTECS | 214 |  |  |  |  |  |  |  |  | 273 | 1780 | 576
